# Assay results as given in IntAct's records for PubMed 38225382.
# B1: Host cell factor 1 (Homo sapiens), P51610-3 (parent)
# chain: MASAVSPANLPAVLLQPRWKRVVGWSGPVPRPRHGHRAVAIKELIVVFGGGNEGIVDELHVYNTATNQWFIPAVRGDIPPGCAAYGFVCDGTRLLVFGGMVEYGKYSNDLYELQASRWEWKRLKAKTPKNGPPPCPRLGHSFSLVGNKCYLFGGLANDSEDPKNNIPRYLNDLYILELRPGSGVVAWDIPITYGVLPPPRESHTAVVYTEKDNKKSKLVIYGGMSGCRLGDLWTLDIDTLTWNKPSLSGVAPLPRSLHSATTIGNKMYVFGGWVPLVMDDVKVATHEKEWKCTNTLACLNLDTMAWETILMDTLEDNIPRARAGHCAVAINTRLYIWSGRDGYRKAWNNQVCCKDLWYLETEKPPPPARVQLVRANTNSLEVSWGAVATADSYLLQLQKYDIPATAATATSPTPNPVPSVPANPPKSL
# partner: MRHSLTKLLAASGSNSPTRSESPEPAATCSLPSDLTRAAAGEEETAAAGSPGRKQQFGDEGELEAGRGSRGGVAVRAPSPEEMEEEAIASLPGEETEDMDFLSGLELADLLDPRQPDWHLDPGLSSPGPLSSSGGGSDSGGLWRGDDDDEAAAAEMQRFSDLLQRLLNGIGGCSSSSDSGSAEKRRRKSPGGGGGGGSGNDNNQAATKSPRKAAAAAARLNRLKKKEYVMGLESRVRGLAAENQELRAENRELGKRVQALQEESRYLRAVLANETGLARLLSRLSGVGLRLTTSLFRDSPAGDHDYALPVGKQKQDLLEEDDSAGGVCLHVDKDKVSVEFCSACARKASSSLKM
# B2: CREB/ATF bZIP transcription factor (Homo sapiens), Q9NS37 (parent)
# chain: B1 partner
# partner: B1 chain
# B3: E3 ubiquitin-protein ligase TRIM37 (Homo sapiens), O94972 (parent)
# chain: MDEQSVESIAEVFRCFICMEKLRDARLCPHCSKLCCFSCIRRWLTEQRAQCPHCRAPLQLRELVNCRWAEEVTQQLDTLQLCSLTKHEENEKDKCENHHEKLSVFCWTCKKCICHQCALWGGMHGGHTFKPLAEIYEQHVTKVNEEVAKLRRRLMELISLVQEVERNVEAVRNAKDERVREIRNAVEMMIARLDTQLKNKLITLMGQKTSLTQETELLESLLQEVEHQLRSCSKSELISKSSEILMMFQQVHRKPMASFVTTPVPPDFTSELVPSYDSATFVLENFSTLRQRADPVYSPPLQVSGLCWRLKVYPDGNGVVRGYYLSVFLELSAGLPETSKYEYRVEMVHQSCNDPTKNIIREFASDFEVGECWGYNRFFRLDLLANEGYLNPQNDTVILRFQVRSPTFFQKSRDQHWYITQLEAAQTSYIQQINNLKERLTIELSRTQKSRDLSPPDNHLSPQNDDALETRAKKSACSDMLLEGGPTTASVREAKEDEEDEEKIQNEDYHHELSDGDLDLDLVYEDEVNQLDGSSSSASSTATSNTEENDIDEETMSGENDVEYNNMELEEGELMEDAAAAGPAGSSHGYVGSSSRISRRTHLCSAATSSLLDIDPLILIHLLDLKDRSSIENLWGLQPRPPASLLQPTASYSRKDKDQRKQQAMWRVPSDLKMLKRLKTQMAEVRCMKTDVKNTLSEIKSSSAASGDMQTSLFSADQAALAACGTENSGRLQDLGMELLAKSSVANCYIRNSTNKKSNSPKPARSSVAGSLSLRRAVDPGENSRSKGDCQTLSEGSPGSSQSGSRHSSPRALIHGSIGDILPKTEDRQCKALDSDAVVVAVFSGLPAVEKRRKMVTLGANAKGGHLEGLQMTDLENNSETGELQPVLPEGASAAPEEGMSSDSDIECDTENEEQEEHTSVGGFHDSFMVMTQPPDEDTHSSFPDGEQIGPEDLSFNTDENSGR
# B4: GRB10-interacting GYF protein 1 (Homo sapiens), O75420 (parent)
# chain: MAAETLNFGPEWLRALSGGGSVASPPPSPAMPKYKLADYRYGREEMLALYVKENKVPEELQDKEFAAVLQDEPLQPLALEPLTEEEQRNFSLSVNSVAVLRLMGKGAGPPLAGTSRGRGSTRSRGRGRGDSCFYQRSIEEGDGAFGRSPREIQRSQSWDDRGERRFEKSARRDGARCGFEEGGAGPRKEHARSDSENWRSLREEQEEEEEGSWRLGAGPRRDGDRWRSASPDGGPRSAGWREHGERRRKFEFDLRGDRGGCGEEEGRGGGGSSHLRRCRAPEGFEEDKDGLPEWCLDDEDEEMGTFDASGAFLPLKKGPKEPIPEEQELDFQGLEEEEEPSEGLEEEGPEAGGKELTPLPPQEEKSSSPSPLPTLGPLWGTNGDGDETAEKEPPAAEDDIRGIQLSPGVGSSAGPPGDLEDDEGLKHLQQEAEKLVASLQDSSLEEEQFTAAMQTQGLRHSAAATALPLSHGAARKWFYKDPQGEIQGPFTTQEMAEWFQAGYFSMSLLVKRGCDEGFQPLGEVIKMWGRVPFAPGPSPPPLLGNMDQERLKKQQELAAAALYQQLQHQQFLQLVSSRQLPQCALREKAALGDLTPPPPPPPQQQQQQLTAFLQQLQALKPPRGGDQNLLPTMSRSLSVPDSGRLWDVHTSASSQSGGEASLWDIPINSSTQGPILEQLQLQHKFQERREVELRAKREEEERKRREEKRRQQQQEEQKRRQEEEELFRRKHVRQQELLLKLLQQQQAVPVPPAPSSPPPLWAGLAKQGLSMKTLLELQLEGERQLHKQPPPREPARAQAPNHRVQLGGLGTAPLNQWVSEAGPLWGGPDKSGGGSSGLGLWEDTPKSGGSLVRGLGLKNSRSSPSLSDSYSHLSGRPIRKKTEEEEKLLKLLQGIPRPQDGFTQWCEQMLHTLSATGSLDVPMAVAILKEVESPYDVHDYIRSCLGDTLEAKEFAKQFLERRAKQKASQQRQQQQEAWLSSASLQTAFQANHSTKLGPGEGSKAKRRALMLHSDPSILGYSLHGSSGEIESVDDY
# B5: F-box only protein 28 (Homo sapiens), Q9NVF7 (parent)
# chain: MAAAAEERMAEEGGGGQGDGGSSLASGSTQRQPPPPAPQHPQPGSQALPAPALAPDQLPQNNTLVALPIVAIENILSFMSYDEISQLRLVCKRMDLVCQRMLNQGFLKVERYHNLCQKQVKAQLPRRESERRNHSLARHADILAAVETRLSLLNMTFMKYVDSNLCCFIPGKVIDEIYRVLRYVNSTRAPQRAHEVLQELRDISSMAMEYFDEKIVPILKRKLPGSDVSGRLMGSPPVPGPSAALTTMQLFSKQNPSRQEVTKLQQQVKTNGAGVTVLRREISELRTKVQEQQKQLQDQDQKLLEQTQIIGEQNARLAELERKLREVMESAVGNSSGSGQNEESPRKRKKATEAIDSLRKSKRLRNRK
# Variants of: B1
# Settings: with zhang_human CREBZF
row,Variant,effect of a mutation on the interaction
1,MASAVSPANLPAVLLQPRWKRVVGWSGPVPRPRHGHRAVAIKELIVVFGGGNEGIVDELHVYNTATNQWFIPAVRGDIPPGCAAYGFVCDGTRLLVFGGMVEYGKYSNDLYELQASRWEWKRLKAKTPKNGPPPCPRLGHSFSLVGNKCYLFGGLANDSEDPKNNIPRYLNDLYILELRPGSGVVAWDIPITYGVLPPPRESHTAVVYTEKDNKKSKLVIYGGMNGCRLGDLWTLDIDTLTWNKPSLSGVAPLPRSLHSATTIGNKMYVFGGWVPLVMDDVKVATHEKEWKCTNTLACLNLDTMAWETILMDTLEDNIPRARAGHCAVAINTRLYIWSGRDGYRKAWNNQVCCKDLWYLETEKPPPPARVQLVRANTNSLEVSWGAVATADSYLLQLQKYDIPATAATATSPTPNPVPSVPANPPKSL [S225N],with no effect
2,MASAVSPANLPAVLLQPRWKRVVGWSGPVPRPRHGHRAVAIKELIVVFGGGNEGIVDELHVYNTATNQWFIPAVRGDIPPGCAAYGFVCDGTRLLVFGGMVEYGKYSNDLYELQASRWEWKRLKAKTPKNGPPPCPRLGHSFSLVGNKCYLFGGLANDSEDPKNNIPRYLNDLYILELRPGSGVVAWDIPITYGVLPPPRESHTAVVYTEKDNKKSKLVIYGGMSGCRLGDLWTLDIDTLTWNKPSLSGVAPLPRSFHSATTIGNKMYVFGGWVPLVMDDVKVATHEKEWKCTNTLACLNLDTMAWETILMDTLEDNIPRARAGHCAVAINTRLYIWSGRDGYRKAWNNQVCCKDLWYLETEKPPPPARVQLVRANTNSLEVSWGAVATADSYLLQLQKYDIPATAATATSPTPNPVPSVPANPPKSL [L257F],decreasing interaction strength

# Variants of: B2
# Settings: with HCFC1, P51610-3
row,Variant,effect of a mutation on the interaction
1,MRHSLTKLLAASGSNSPTRSESPEPAATCSLPSDLTRAAAGEEETAAAGSPGRKQQFGDEGELEAGRGSRGGVAVRAPSPEEMEEEAIASLPGEETEDMDFLSGLELADLLDPRQPDWHLDPGLSSPGPLSSSGGGSDSGGLWRGDDDDEAAAAEMQRFSDLLQRLLNGIGGCSSSSDSGSAEKRRRKSPGGGGGGGSGNDNNQAATKSPRKAAAAAARLNRLKKKEYVMGLESRVRGLAAENQELRAENRELGKRVQALQEESRYLRAVLANETGLARLLSRLSGVGLRLTTSLFRDSPAGDHDAALPVGKQKQDLLEEDDSAGGVCLHVDKDKVSVEFCSACARKASSSLKM [Y306A],decreasing interaction strength

# Variants of: B3
# Settings: with pnkp_human PNKP
row,Variant,effect of a mutation on the interaction
1,N376R,with no effect
2,F328R,with no effect

# Variants of: B4
# Settings: with SNRPB
row,Variant,effect of a mutation on the interaction
1,L508F,with no effect
2,W498E,decreasing interaction strength

# Variants of: B5
# Settings: with stx1b_human STX1B
row,Variant,effect of a mutation on the interaction
1,MAAAAEERMAEEGGGGQGDGGSSLASGSTQRQPPPPAPQHPQPGSQALPAPALAPDQLPQNNTLVALPIVAIENILSFMSYDEISQLRLVCKRMDLVCQRMLNQGFLKVERYHNLCQKQVKAQLPRRESERRNHSLARHADILAAVETRLSELNMTFMKYVDSNLCCFIPGKVIDEIYRVLRYVNSTRAPQRAHEVLQELRDISSMAMEYFDEKIVPILKRKLPGSDVSGRLMGSPPVPGPSAALTTMQLFSKQNPSRQEVTKLQQQVKTNGAGVTVLRREISELRTKVQEQQKQLQDQDQKLLEQTQIIGEQNARLAELERKLREVMESAVGNSSGSGQNEESPRKRKKATEAIDSLRKSKRLRNRK [L152E],decreasing interaction strength
2,MAAAAEERMAEEGGGGQGDGGSSLASGSTQRQPPPPAPQHPQPGSQALPAPALAPDQLPQNNTLVALPIVAIENILSFMSYDEISQLRLVCKRMDLVCQRMLNQGFLKVERYHNLCQKQVKAQLPRRESERRNHSLARHADILAAVETRLSLLNMTFMKYVDSNLCCFIPGKVIDEIYRVLRYVNSTRAPQRAHEVLQELRDISSMAMEYFDEKIVPILKRKLPGSDVSGRLMGSPPVPGPSAALTTMQLFSKQNPSRQEVTKLQQQVKTNGAGVTVLRREISELRTKVQEQQKQLQDQDQKLLEQTQIIGEQNARLAELERKLREVMESAVGNSSGSGQNEESPRKLKKATEAIDSLRKSKRLRNRK [R348L],increasing interaction strength
3,MAAAAEERMAEEGGGGQGDGGSSLASGSTQRQPPPPAPQHPQPGSQALPAPALAPDQLPQNNTLVALPIVAIENILSFMSYDEISQLRLVCKRMDLVCQRMLNQGFLKVERYHNLCQKQVKAQLPRRESERRNHSLARHADILAAVETRLSLLNMTFMKYVDSNLCCFIPGKVIDEIYRVLRYVNSTRAPQRAHEVLQELRDISSMAMEYFDEKIVPILKRKLPGSDVSGRLMGSPPVPGPSAALTTMQLFSKQNPSRQEVTKLQQQVKTNGAGVTVLRREISELRTKVQEQQKQLQDQDQKLLEQTQIIGEQNARLAELERKLREVMESAVGNSSGSGQNEESPRKRKKATEARDSLRKSKRLRNRK [I355R],with no effect
